Literature values as cited in paper PMC5342629.
Like-named read-outs stand apart in the source and are kept apart here.

What was measured:
[1] = target: Cdc4 (Saccharomyces cerevisiae) (UniProt P07834)
[2] = target: Cdc4 (Saccharomyces cerevisiae) (UniProt P07834); remark: listed apart in the source
[3] = target: Cdc4 (Saccharomyces cerevisiae) (UniProt P07834); remark: listed apart in the source

Chain of UniProt P07834 (P07834 whole entry): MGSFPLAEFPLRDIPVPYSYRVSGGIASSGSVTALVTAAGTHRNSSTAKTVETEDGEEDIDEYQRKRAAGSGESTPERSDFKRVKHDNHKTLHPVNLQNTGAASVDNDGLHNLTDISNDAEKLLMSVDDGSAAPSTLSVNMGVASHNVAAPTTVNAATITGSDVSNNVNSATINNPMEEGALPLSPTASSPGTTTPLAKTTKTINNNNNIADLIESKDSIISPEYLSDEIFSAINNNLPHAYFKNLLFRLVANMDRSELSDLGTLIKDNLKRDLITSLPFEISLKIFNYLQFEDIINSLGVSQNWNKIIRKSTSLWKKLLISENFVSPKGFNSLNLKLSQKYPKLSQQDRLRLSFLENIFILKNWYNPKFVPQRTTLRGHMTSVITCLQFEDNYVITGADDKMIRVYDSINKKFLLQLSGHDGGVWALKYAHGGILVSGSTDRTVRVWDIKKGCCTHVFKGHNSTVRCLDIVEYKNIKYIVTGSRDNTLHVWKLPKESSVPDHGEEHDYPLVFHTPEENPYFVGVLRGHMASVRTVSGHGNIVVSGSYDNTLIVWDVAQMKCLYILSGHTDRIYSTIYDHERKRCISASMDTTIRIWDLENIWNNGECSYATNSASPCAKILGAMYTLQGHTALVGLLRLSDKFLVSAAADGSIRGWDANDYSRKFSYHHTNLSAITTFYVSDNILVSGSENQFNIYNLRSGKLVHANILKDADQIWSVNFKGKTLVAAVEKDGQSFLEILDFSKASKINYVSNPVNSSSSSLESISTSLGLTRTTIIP

Kd [1] | Kd [2] | Kd [3] | Substance
2400 nM |  |  | Sic1 20-residue peptide (from UniProt P38634)
 | 1000 nM | > 50000 nM | Sic1 (from UniProt P38634)
